Experiments:
[1] = target: HECT domain of HUWE1 (residues 3993-4374), wild type (human) (UniProt Q7Z6Z7); assay: covalent labelling with an activity-based probe (SDS-PAGE, Coomassie); 10 μM E3 and 100 μM Ub-Prg in 50 mM HEPES, 100 mM NaCl, pH 8.0 at 30 °C, quenched with SDS loading dye; only the covalent (vinyl thioether) product is seen
[2] = target: HECT domain of NEDD4-1 (514-900) (UniProt P46934); assay: as above
Sequence of UniProt P46934 (P46934 933-1319): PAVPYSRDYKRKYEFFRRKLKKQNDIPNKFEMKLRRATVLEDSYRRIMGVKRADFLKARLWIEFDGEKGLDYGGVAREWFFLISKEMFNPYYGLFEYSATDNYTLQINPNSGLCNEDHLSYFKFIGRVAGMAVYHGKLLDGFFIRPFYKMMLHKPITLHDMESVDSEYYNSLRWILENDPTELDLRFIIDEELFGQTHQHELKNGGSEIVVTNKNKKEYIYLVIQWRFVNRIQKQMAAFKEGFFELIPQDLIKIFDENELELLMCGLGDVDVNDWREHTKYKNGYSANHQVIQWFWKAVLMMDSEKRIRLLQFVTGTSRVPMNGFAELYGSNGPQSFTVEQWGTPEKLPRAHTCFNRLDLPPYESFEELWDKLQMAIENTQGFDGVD

Sequence of UniProt Q7Z6Z7 (Q7Z6Z7 3993-4374): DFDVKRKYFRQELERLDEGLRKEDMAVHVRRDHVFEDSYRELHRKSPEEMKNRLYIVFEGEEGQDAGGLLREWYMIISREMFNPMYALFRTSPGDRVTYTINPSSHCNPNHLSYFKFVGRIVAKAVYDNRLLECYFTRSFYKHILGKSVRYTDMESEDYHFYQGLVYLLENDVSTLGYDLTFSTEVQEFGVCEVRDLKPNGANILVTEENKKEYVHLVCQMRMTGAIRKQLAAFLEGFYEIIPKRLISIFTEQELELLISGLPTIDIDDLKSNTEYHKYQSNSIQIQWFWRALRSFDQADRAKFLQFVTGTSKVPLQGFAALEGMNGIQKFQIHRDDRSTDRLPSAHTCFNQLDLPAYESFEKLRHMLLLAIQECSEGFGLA

- stoichiometry N [1]: 1
- stoichiometry N [2]: 1
Substance: ubiquitin-propargylamine

From publication PMC8453484
